{"source": "paper PMC4598299", "binders": {"B1": {"name": "hTER CR4/5 (structured_RNA)", "RNA": "CCCGCCUGGAGGCCGCGGUCCGCCGCGAAGAGUUGGGCUCUGUCAGCCGCGGG"}}, "molecular_target": "hThumb WT (hTERT thumb/CTE domain) (human, UniProt O14746 943-1132)", "sequence (O14746 943-1132)": "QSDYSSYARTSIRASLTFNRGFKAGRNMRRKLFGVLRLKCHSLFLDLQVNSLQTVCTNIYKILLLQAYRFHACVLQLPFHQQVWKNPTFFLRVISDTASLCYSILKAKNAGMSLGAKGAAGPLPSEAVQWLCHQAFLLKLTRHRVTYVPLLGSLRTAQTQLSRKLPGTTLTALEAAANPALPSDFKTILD", "test": "fluorescence polarization"}
{"binder": "B1", "values": [{"measurement": "Kd", "value": "~400", "unit": "nM"}]}
